Tested on: Escherichia coli TOP10
Assay: shrunken log2 fold change of peptide-encoding DNA abundance (4.5 h post-induction vs induction); higher = less antimicrobial activity (less host growth inhibition)
Conditions: time post-induction: 4.5 h; library: site-saturation at positions 5, 18, 19, 20
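Also: peptides expressed intracellularly from a pBAD plasmid library in pooled LB shake-flask culture, induced with 0.3% L-arabinose, DNA abundance read by NGS, three biological replicates, DESeq2 with apeglm shrinkage.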

Sequence | shrunken log2 fold change
RRIRHRPPRLPRPRPRPRGYPRP | -0.144
RRIRHRPPRLPRPRPRPRHLPRP | 0.184
RRIRHRPPRLPRPRPRPRHNPRP | -0.4
RRIRHRPPRLPRPRPRPRHSPRP | -0.173
RRIRHRPPRLPRPRPRPRHVPRP | -0.324
RRIRHRPPRLPRPRPRPRIGPRP | 0.172
RRIRHRPPRLPRPRPRPRISPRP | 0.0117
RRIRHRPPRLPRPRPRPRLHPRP | 0.0986
RRIRHRPPRLPRPRPRPRMIPRP | -8.79e-05
RRIRHRPPRLPRPRPRPRPFPRP | -0.18
RRIRHRPPRLPRPRPRPRPNPRP | 0.321
RRIRHRPPRLPRPRPRPRPRPRP | 0.707
RRIRHRPPRLPRPRPRPRQEPRP | 0.0426
RRIRHRPPRLPRPRPRPRRDPRP | -0.02
RRIRHRPPRLPRPRPRPRRKPRP | 0.0896
RRIRHRPPRLPRPRPRPRRMPRP | 0.254
RRIRHRPPRLPRPRPRPRSGPRP | -0.0415
RRIRHRPPRLPRPRPRPRSKPRP | 3.34
RRIRHRPPRLPRPRPRPRSRPRP | -0.132
RRIRHRPPRLPRPRPRPRSSPRP | -0.00605
RRIRHRPPRLPRPRPRPRTDPRP | 0.0682
RRIRHRPPRLPRPRPRPRVQPRP | 0.054

Sequence | shrunken log2 fold change
RRIRHRPPRLPRPRPRPRWVPRP | 0.31
RRIRHRPPRLPRPRPRPSDMPRP | 2.66
RRIRHRPPRLPRPRPRPSDYPRP | -0.343
RRIRHRPPRLPRPRPRPSEHPRP | 0.00525
RRIRHRPPRLPRPRPRPSFIPRP | -0.619
RRIRHRPPRLPRPRPRPSGCPRP | -0.162
RRIRHRPPRLPRPRPRPSGSPRP | -0.175
RRIRHRPPRLPRPRPRPSGVPRP | -0.115
RRIRHRPPRLPRPRPRPSHVPRP | -0.166
RRIRHRPPRLPRPRPRPSKPPRP | 0.00696
RRIRHRPPRLPRPRPRPSLTPRP | 0.0616
RRIRHRPPRLPRPRPRPSMKPRP | -0.436
RRIRHRPPRLPRPRPRPSMVPRP | -0.372
RRIRHRPPRLPRPRPRPSMWPRP | -0.095
RRIRHRPPRLPRPRPRPSNIPRP | -0.332
RRIRHRPPRLPRPRPRPSNWPRP | -0.106
RRIRHRPPRLPRPRPRPSPYPRP | -0.703
RRIRHRPPRLPRPRPRPSRHPRP | 1.6
RRIRHRPPRLPRPRPRPSSIPRP | -0.762
RRIRHRPPRLPRPRPRPSTNPRP | -0.275
RRIRHRPPRLPRPRPRPSWGPRP | -0.0416
RRIRHRPPRLPRPRPRPSWPPRP | -0.00928

Sequence | shrunken log2 fold change
RRIRHRPPRLPRPRPRPSWWPRP | 0.348
RRIRHRPPRLPRPRPRPSYLPRP | -0.683
RRIRHRPPRLPRPRPRPTAFPRP | -0.00502
RRIRHRPPRLPRPRPRPTAYPRP | -0.23
RRIRHRPPRLPRPRPRPTCFPRP | 0.0654
RRIRHRPPRLPRPRPRPTCHPRP | -0.647
RRIRHRPPRLPRPRPRPTCSPRP | 0.0782
RRIRHRPPRLPRPRPRPTDFPRP | -0.0704
RRIRHRPPRLPRPRPRPTDYPRP | 0.029
RRIRHRPPRLPRPRPRPTEVPRP | -0.0182
RRIRHRPPRLPRPRPRPTGQPRP | 0.0378
RRIRHRPPRLPRPRPRPTHGPRP | 0.125
RRIRHRPPRLPRPRPRPTIDPRP | -0.252
RRIRHRPPRLPRPRPRPTKKPRP | -0.0507
RRIRHRPPRLPRPRPRPTMIPRP | -0.112
RRIRHRPPRLPRPRPRPTNIPRP | -0.135
RRIRHRPPRLPRPRPRPTNMPRP | 1.96
RRIRHRPPRLPRPRPRPTQFPRP | -0.631
RRIRHRPPRLPRPRPRPTRIPRP | -0.0296
RRIRHRPPRLPRPRPRPTRPPRP | 0.234
RRIRHRPPRLPRPRPRPTSLPRP | -0.135
RRIRHRPPRLPRPRPRPTSRPRP | 0.0698

Sequence | shrunken log2 fold change
RRIRHRPPRLPRPRPRPTVEPRP | -0.0265
RRIRHRPPRLPRPRPRPTVKPRP | -0.255
RRIRHRPPRLPRPRPRPTWFPRP | 0.17
RRIRHRPPRLPRPRPRPTWLPRP | 0.326
RRIRHRPPRLPRPRPRPTYRPRP | -0.0234
RRIRHRPPRLPRPRPRPTYYPRP | -0.0104
RRIRHRPPRLPRPRPRPVAIPRP | 2.06
RRIRHRPPRLPRPRPRPVAKPRP | -0.17
RRIRHRPPRLPRPRPRPVCDPRP | -0.41
RRIRHRPPRLPRPRPRPVCHPRP | -0.198
RRIRHRPPRLPRPRPRPVCQPRP | -0.147
RRIRHRPPRLPRPRPRPVDQPRP | 0.00586
RRIRHRPPRLPRPRPRPVDWPRP | 0.15
RRIRHRPPRLPRPRPRPVEEPRP | 0.00298
RRIRHRPPRLPRPRPRPVGQPRP | 0.0139
RRIRHRPPRLPRPRPRPVGRPRP | 0.226
RRIRHRPPRLPRPRPRPVGVPRP | -0.00247
RRIRHRPPRLPRPRPRPVGWPRP | 0.535
RRIRHRPPRLPRPRPRPVHHPRP | -0.0583
RRIRHRPPRLPRPRPRPVHIPRP | -0.035
RRIRHRPPRLPRPRPRPVHVPRP | -0.16
RRIRHRPPRLPRPRPRPVIGPRP | -0.0297

Sequence | shrunken log2 fold change
RRIRHRPPRLPRPRPRPVKDPRP | -0.549
RRIRHRPPRLPRPRPRPVLLPRP | -0.0673
RRIRHRPPRLPRPRPRPVMHPRP | 0.000945
RRIRHRPPRLPRPRPRPVMIPRP | -0.0805
RRIRHRPPRLPRPRPRPVNRPRP | -0.26
RRIRHRPPRLPRPRPRPVQAPRP | 0.00472
RRIRHRPPRLPRPRPRPVRLPRP | 0.0217
RRIRHRPPRLPRPRPRPVSPPRP | 0.183
RRIRHRPPRLPRPRPRPVSWPRP | 0.442
RRIRHRPPRLPRPRPRPVTEPRP | -0.0954
RRIRHRPPRLPRPRPRPVTGPRP | -0.213
RRIRHRPPRLPRPRPRPVTYPRP | -0.181
RRIRHRPPRLPRPRPRPVWKPRP | -0.00992
RRIRHRPPRLPRPRPRPVWVPRP | -0.0634
RRIRHRPPRLPRPRPRPWAAPRP | -0.0958
RRIRHRPPRLPRPRPRPWAQPRP | 0.0333
RRIRHRPPRLPRPRPRPWDEPRP | -0.175
RRIRHRPPRLPRPRPRPWDKPRP | -0.000233
RRIRHRPPRLPRPRPRPWFTPRP | -0.0018
RRIRHRPPRLPRPRPRPWGEPRP | -0.0132
RRIRHRPPRLPRPRPRPWGMPRP | -0.0998

From the supplement of paper PMC9112550, “Optimization of the antimicrobial peptide Bac7 by deep mutational scanning” (BMC Biology, 2022)
